# Source: PMC3087504, “DNA Damage in Oocytes Induces a Switch of the Quality Control Factor TAp63α from Dimer to Tetramer”
# T1: MBP-TAp63αR (Mus musculus, UniProt O88898 40-680, R318H)
# T1 sequence: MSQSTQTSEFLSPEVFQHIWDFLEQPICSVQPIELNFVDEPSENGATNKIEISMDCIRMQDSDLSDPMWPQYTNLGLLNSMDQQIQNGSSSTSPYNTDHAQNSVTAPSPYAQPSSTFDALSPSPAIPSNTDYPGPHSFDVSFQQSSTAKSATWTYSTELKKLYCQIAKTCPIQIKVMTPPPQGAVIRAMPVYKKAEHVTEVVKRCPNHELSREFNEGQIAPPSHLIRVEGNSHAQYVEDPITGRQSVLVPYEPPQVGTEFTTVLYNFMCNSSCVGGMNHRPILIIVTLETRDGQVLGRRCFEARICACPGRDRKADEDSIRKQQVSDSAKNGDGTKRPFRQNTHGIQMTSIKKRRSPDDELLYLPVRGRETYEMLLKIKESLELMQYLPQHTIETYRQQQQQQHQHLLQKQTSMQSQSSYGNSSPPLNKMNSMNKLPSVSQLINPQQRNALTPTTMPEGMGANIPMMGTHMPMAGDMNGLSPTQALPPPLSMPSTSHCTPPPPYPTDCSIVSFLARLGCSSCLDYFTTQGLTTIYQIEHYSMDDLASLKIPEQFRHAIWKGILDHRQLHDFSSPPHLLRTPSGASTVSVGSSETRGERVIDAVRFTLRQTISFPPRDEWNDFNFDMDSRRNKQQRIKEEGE
# T2: MBP-TAp63α (Mus musculus, UniProt O88898 40-680)
# T2 sequence: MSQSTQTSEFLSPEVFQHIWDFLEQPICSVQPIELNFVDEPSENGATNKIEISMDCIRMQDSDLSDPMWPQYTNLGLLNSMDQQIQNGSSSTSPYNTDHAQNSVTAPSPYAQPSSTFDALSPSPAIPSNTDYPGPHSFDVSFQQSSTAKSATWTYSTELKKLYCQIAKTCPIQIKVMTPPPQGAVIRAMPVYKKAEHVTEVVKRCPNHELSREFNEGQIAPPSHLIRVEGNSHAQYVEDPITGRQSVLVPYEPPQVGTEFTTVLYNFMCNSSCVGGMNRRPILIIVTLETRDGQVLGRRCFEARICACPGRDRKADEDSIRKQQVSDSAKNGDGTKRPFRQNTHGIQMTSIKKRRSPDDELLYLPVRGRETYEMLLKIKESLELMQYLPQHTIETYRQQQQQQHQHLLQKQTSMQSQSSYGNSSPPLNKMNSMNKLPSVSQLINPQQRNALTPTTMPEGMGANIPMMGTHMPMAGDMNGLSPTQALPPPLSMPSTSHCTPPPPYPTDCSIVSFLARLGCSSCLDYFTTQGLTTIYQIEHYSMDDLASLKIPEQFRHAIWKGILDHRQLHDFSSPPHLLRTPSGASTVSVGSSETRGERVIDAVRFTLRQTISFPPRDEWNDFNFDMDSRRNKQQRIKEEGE
# Tests used:
# MBP-TAp63αR = target: T1, MBP-TAp63αR; experiment: fluorescence anisotropy; 300 nM DNA; 10 mM potassium phosphate pH 7.6, 200 mM NaCl, room temperature, 30 min; 15 nM p21 DNA (300 nM for controls), protein 0.1-15 µM monomer; conditions: protein: recombinant; tags: N-term MBP; C-term His6; chain copies: 4; label: 5'-fluorescein
# MBP-TAp63α [1] = target: T2, MBP-TAp63α; experiment: fluorescence anisotropy; two-site fit, monomer concentration; second-site KD negative, uninterpreted; 10 mM potassium phosphate pH 7.6, 200 mM NaCl, room temperature, 30 min; 15 nM p21 DNA (300 nM for controls), protein 0.1-15 µM monomer; conditions: protein: recombinant; tags: N-term MBP; C-term His6; chain copies: 2; label: 5'-fluorescein
# MBP-TAp63α [2] = target: T2, MBP-TAp63α; experiment: fluorescence anisotropy; 300 nM DNA; 10 mM potassium phosphate pH 7.6, 200 mM NaCl, room temperature, 30 min; 15 nM p21 DNA (300 nM for controls), protein 0.1-15 µM monomer; conditions: protein: recombinant; tags: N-term MBP; C-term His6; chain copies: 2; label: 5'-fluorescein
Binder,binding result (MBP-TAp63αR),Kd (MBP-TAp63α [1]) [µM],binding result (MBP-TAp63α [2])
SELEX-based p63 binding sequence (dsDNA) DNA 1: CCTATTCTAGACATGTGAGGACATGTCGATACTTATTCC DNA 2: GGAATAAGTATCGACATGTCCTCACATGTCTAGAATAGG,no binding,,
p21 promoter response element (dsDNA) DNA 1: GGCAGGAACATGTCCCAACATGTTGAGCCG DNA 2: CGGCTCAACATGTTGGGACATGTTCCTGCC,,7.51 ± 1.32,
random sequence (dsDNA) DNA 1: CGAGTTGTAAGTCGAATTGATACCATAATGCACTACACG DNA 2: CGTGTAGTGCATTATGGTATCAATTCGACTTACAACTCG,no binding,,no binding
